The assay concerns the target T1, recombinant purified GDF-8 (UniProt O14793 267-375, limits assumed).
T1 sequence (looked up): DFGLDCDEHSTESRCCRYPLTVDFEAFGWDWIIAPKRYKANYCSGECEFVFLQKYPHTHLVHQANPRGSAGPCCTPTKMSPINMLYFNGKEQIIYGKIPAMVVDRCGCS
Description: cell-based or functional assay.

B1: mouse GASP1 cloned with a C-terminal V5-His tag (GASP1-V5-His) (other, not shown: small tags and cut ends)
chain: LPPIRYSHAGICPNDMNPNLWVDAQSTCKRECETDQECETYEKCCPNVCGTKSCVAARYMDVKGKKGPVGMPKEATCDHFMCLQQGSECDIWDGQPVCKCKDRCEKEPSFTCASDGLTYYNRCFMDAEACSKGITLSVVTCRYHFTWPNTSPPPPETTVHPTTASPETLGLDMAAPALLNHPVHQSVTVGETVSFLCDVVGRPRPELTWEKQLEDRENVVMRPNHVRGNVVVTNIAQLVIYNVQPQDAGIYTCTARNVAGVLRADFPLSVVRGGQARATSESSLNGTAFPATECLKPPDSEDCGEEQTRWHFDAQANNCLTFTFGHCHHNLNHFETYEACMLACMSGPLATCSLPALQGPCKAYVPRWAYNSQTGLCQSFVYGGCEGNGNNFESREACEESCPFPRGNQHCRACKPRQKLVTSFCRSDFVILGRVSELTEEQDSGRALVTVDEVLKDEKMGLKFLGREPLEVTLLHVDWTCPCPNVTVGETPLIIMGEVDGGMAMLRPDSFVGASSTRRVRKLREVMYKKTCDVLKDFLGLQ
Regarding B1, the “IC50 for inhibition of GDF-8 (20 ng/ml) in the (CAGA)12 luciferase reporter gene assay, RD cells, purified GASP1-V5-His” value was approximately 3 nM.

These data come from patent US20030180306A1 (Pfizer, published 2003).
